Results taken from patent EP3912994A1.

Key:
[1] = biological target: Tenascin-C (TNC), recombinant full length; assay: SPR (Biacore 2000), TNC immobilised on CM5 chip, 1:1 Langmuir model
[2] = biological target: Tenascin-C (TNC) expressed by the NT193M tumor cell (mouse) (UniProt Q80YX1); assay: cell-based or functional assay
[3] = biological target: fibronectin type III domains 1-5 of human tenascin-C (human) (UniProt P24821); assay: ELISA, TN1-5 coated, biotinylated FN12-14 titrated 1 nM to 1 µM
fibronectin type III domains 1-5 of human tenascin-C (human), sequence (P24821 625-1075, form in doubt): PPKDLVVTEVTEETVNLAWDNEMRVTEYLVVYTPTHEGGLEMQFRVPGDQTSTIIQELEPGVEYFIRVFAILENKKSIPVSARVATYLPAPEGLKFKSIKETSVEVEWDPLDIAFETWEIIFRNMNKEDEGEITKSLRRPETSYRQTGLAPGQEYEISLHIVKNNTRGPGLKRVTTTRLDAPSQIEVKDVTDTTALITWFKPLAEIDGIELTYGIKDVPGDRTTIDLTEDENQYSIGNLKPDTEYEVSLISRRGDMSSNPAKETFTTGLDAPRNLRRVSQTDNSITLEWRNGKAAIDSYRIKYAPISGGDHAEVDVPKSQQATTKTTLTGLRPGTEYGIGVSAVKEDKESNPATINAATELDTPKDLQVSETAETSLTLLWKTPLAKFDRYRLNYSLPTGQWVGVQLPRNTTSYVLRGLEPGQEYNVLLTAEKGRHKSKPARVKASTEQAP

Tenascin-C (TNC) expressed by the NT193M tumor cell (mouse), sequence (Q80YX1 23-2110 limits assumed): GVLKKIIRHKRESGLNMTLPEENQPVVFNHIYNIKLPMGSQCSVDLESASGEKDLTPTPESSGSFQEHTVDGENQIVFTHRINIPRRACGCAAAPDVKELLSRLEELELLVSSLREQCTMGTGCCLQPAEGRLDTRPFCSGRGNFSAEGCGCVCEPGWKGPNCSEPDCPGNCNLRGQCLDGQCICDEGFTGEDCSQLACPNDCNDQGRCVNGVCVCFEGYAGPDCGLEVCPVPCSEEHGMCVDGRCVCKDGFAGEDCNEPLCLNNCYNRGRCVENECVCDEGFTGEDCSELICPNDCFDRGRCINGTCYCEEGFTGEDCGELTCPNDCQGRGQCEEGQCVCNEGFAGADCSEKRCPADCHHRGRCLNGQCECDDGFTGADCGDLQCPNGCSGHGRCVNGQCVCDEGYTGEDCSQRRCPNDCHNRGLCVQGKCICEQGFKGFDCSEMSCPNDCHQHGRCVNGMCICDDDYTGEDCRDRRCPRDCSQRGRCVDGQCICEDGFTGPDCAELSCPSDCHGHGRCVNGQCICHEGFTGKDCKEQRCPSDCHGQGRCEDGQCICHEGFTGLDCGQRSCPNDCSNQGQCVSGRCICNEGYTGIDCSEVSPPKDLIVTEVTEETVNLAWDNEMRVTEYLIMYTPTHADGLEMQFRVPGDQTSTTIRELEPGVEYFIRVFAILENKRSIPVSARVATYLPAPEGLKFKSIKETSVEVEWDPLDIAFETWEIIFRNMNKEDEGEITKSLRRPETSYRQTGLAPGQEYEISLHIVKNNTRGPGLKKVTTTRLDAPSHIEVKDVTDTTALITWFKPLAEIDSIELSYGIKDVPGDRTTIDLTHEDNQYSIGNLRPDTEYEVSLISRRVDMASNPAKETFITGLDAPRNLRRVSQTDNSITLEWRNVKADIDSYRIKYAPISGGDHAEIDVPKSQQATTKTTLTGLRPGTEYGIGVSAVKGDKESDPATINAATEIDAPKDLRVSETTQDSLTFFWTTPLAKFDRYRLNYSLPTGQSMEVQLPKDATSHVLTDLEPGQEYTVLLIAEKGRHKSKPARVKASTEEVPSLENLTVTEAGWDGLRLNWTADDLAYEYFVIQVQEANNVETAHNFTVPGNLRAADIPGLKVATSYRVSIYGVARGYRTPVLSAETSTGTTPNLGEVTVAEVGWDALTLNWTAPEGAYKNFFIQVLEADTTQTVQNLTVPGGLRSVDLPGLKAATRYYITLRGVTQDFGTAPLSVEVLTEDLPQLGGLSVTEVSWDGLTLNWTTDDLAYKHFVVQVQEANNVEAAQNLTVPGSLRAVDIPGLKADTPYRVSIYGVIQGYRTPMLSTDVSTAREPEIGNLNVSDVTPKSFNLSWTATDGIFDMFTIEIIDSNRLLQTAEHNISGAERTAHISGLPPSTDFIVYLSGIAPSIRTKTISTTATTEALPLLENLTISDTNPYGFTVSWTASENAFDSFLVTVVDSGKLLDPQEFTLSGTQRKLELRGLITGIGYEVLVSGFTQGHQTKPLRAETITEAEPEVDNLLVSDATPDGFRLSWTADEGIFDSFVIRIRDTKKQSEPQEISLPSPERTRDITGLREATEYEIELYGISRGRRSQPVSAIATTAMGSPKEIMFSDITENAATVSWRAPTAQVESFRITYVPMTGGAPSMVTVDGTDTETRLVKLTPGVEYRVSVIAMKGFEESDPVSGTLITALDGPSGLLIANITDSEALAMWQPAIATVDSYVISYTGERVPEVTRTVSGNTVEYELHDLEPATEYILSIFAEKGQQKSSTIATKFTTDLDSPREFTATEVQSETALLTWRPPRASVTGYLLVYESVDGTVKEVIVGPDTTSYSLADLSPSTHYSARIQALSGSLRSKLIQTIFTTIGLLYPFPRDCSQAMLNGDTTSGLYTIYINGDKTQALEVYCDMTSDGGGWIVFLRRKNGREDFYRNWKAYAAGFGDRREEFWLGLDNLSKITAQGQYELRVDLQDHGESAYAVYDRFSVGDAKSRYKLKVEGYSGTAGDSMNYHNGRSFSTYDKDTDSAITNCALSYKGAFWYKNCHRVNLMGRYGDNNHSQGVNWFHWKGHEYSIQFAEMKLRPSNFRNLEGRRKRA

Substance	Kd [1] [µM]	TRAIL-induced killing of NT193M cells [2] [%]	Kd [3] [µM]
CCL21 (R&D Systems 457-6C) (from UniProt P84444 24-133) (ligand)	0.058	–	–
CXCL12 (R&D Systems 460-SD-050) (from UniProt P40224 22-89) (ligand)	0.79	–	–
Mouse recombinant SU… (Enzo Lifesciences ALX-201-130-C020) (from UniProt P50592 99-291) (ligand)	0.0028	5	–
fibronectin type III domains 12-14 of human fibronectin (double Strep-tagged) (from UniProt P02751 1635-1908)	–	–	0.052
